Data: patent US20160194380A1 (Merck KGaA, published 2016)
Where no end group is shown, it is not given here.

T1: Human matriptase-1 (human, UniProt Q9Y5Y6 596-855, limits assumed)
T1 construct: also called MTSP1
T1 sequence (looked up): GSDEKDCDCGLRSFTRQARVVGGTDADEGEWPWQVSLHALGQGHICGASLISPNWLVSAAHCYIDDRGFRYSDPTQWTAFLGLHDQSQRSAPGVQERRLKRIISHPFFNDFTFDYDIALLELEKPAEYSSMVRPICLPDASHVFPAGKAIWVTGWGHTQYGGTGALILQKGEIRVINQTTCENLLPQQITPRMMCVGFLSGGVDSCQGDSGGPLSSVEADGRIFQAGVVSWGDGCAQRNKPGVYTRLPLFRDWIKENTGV


Assays:
[1] = target: T2, Bovine pancreatic trypsin (bovine, UniProt P00760 24-246); experiment: protease inhibition assay, substrate-independent Ki from Morrison fit
T2 construct: Bought
T2 sequence (P00760 24-246): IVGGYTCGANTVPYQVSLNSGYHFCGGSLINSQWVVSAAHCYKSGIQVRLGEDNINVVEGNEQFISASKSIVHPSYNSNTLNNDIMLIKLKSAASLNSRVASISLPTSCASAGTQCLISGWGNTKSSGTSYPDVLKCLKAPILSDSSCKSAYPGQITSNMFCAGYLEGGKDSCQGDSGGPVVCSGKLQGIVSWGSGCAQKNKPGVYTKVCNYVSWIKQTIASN
Protocol: (§1) D: Biol. Crystallogr., 69(2013), 114-120; Reinwarth, ChemBioChem, 14(2013), 137-146; Boy, Mol. Imaging Biol. 12(2010), 377-385] Measurements were carried out in triplicates using a Tecan Genios ELISA reader. The normalized residual proteolytic activity (v/v0) of proteases was determined using substrates Boc-QAR-pNA (250 μM), Boc-QAR-AMC (250 μM) or Spectrozym tPA (250 μM). Product formation was monitored after preincubation (30 min, RT) with inhibitor at different concentrations over 30 min by measuring the absorbance at 405 nm or the fluorescence emission (ex. 360 nm, em. 465 nm), respectively. Selectivity data were carried out in duplicates with final protease concentrations of uPA and thrombin of 5 nM. In case of hepsin 50 mM Tris/HCl pH 9.0 was used as assay buffer. Apparent inhibition constants (Kᵢ^app) were calculated by fitting the Morrison equation (1) for tight-binding inhibitors to the relative reaction velocity using non-linear regression (Marquardt-Levenberg algorithm, SigmaPlot 11).
(§2) Substrate-independent inhibition constants Ki were calculated from Ki^app and Km of the enzyme according to (2). The Michaelis-Menten constant Km for the substrates and proteases were determined previously.

Human matriptase-1 = target: T1, Human matriptase-1; experiment: as above
Protocol: as §1, §2

| Binder | Ki [1] | Ki (Human matriptase-1) |
| --- | --- | --- |
| EDKCSPSGAICSGFGPPEQCCSGACVPHPILRIFVCQ (peptide, UniProt P84781 1-37, looked up, disulfide (positions not given here); also: oxidatively folded, disulfide places not given here, Made by Fmoc-SPPS and oxidative folding; also called 1 (SOTI-III wt); SOTI-III wild type 1) [SOTI-III wt (inhibitor 1)] | 60.6 nM |  |
| GGVCPKILKKCRRDSDCPGACICRGNGYCG (peptide, UniProt P82409 5-34, looked up, disulfide (positions not given here); also: oxidatively folded, disulfide places not given here, Open-chain (acyclic) form, chemically synthesised and oxidatively folded; also called 3 (MCoTI-II wt); MCoTI-wt 3) [MCoTI-II wt (inhibitor 3)] | 2.37 nM | 80.7 nM |
